Laboratory results: patent publication US20140044713A1
Blank lines part the entries; values can stand above or below the substance they belong to.

What was measured:
[1] = biological target: Lgr5 (endogenous, or expression construct whose tag is not stated) (human) (UniProt O75473); experiment: TAP (anti-FLAG, anti-HA) + mass spectrometry, bait stably expressed in LS174T cells, Exp 2, prey LGR5
[2] = biological target: LRP6 (endogenous) (human) (UniProt O75581); experiment: TAP (anti-FLAG, anti-HA) + mass spectrometry, bait stably expressed in LS174T cells, Exp 2, prey LRP6
Chain of LRP6 (endogenous) (human) (O75581 20-1613): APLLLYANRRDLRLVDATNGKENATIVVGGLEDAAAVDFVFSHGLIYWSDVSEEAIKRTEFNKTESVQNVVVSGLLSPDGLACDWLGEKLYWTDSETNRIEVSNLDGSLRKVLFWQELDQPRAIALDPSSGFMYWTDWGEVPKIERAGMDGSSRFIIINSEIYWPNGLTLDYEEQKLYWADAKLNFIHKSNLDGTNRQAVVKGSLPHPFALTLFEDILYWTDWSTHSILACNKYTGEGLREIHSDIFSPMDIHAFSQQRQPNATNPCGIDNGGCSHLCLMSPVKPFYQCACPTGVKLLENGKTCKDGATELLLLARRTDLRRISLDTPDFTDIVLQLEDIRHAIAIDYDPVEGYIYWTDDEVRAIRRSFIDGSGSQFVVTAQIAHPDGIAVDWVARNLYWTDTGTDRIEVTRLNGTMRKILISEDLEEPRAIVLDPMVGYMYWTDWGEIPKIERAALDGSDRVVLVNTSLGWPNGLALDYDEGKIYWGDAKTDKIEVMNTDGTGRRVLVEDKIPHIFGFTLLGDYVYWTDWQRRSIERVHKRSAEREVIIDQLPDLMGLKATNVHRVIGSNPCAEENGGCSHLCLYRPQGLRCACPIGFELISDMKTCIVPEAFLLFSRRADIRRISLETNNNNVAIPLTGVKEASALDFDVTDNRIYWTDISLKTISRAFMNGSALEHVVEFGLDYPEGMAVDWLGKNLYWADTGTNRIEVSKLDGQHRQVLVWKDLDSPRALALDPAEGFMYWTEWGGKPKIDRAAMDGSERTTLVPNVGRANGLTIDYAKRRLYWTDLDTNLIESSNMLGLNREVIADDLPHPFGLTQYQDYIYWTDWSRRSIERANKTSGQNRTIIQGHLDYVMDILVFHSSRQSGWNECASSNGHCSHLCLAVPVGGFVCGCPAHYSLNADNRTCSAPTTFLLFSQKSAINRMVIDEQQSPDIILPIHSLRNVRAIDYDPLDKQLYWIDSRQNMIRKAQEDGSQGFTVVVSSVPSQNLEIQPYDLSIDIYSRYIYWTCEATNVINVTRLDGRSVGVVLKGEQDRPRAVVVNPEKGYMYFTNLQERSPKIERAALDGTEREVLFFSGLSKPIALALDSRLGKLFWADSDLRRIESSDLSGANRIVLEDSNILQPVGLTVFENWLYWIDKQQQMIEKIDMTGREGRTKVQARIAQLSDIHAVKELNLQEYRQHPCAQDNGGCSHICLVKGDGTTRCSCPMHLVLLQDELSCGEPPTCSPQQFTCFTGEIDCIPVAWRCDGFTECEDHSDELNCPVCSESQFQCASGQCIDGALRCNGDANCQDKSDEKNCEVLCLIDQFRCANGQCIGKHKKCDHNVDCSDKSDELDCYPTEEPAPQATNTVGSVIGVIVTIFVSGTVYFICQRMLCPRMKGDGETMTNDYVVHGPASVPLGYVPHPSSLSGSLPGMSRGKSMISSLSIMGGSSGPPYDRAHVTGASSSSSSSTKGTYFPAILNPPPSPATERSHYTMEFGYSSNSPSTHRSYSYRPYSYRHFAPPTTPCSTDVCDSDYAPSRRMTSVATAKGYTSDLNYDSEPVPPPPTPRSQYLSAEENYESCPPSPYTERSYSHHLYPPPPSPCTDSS

[3] = biological target: Frz5 (endogenous, LS174T cells) (human) (UniProt Q13467); experiment: TAP (anti-FLAG, anti-HA) + mass spectrometry, bait stably expressed in LS174T cells, Exp 2, prey Frzd5
Chain of Frz5 (endogenous, LS174T cells) (human) (Q13467 27-585): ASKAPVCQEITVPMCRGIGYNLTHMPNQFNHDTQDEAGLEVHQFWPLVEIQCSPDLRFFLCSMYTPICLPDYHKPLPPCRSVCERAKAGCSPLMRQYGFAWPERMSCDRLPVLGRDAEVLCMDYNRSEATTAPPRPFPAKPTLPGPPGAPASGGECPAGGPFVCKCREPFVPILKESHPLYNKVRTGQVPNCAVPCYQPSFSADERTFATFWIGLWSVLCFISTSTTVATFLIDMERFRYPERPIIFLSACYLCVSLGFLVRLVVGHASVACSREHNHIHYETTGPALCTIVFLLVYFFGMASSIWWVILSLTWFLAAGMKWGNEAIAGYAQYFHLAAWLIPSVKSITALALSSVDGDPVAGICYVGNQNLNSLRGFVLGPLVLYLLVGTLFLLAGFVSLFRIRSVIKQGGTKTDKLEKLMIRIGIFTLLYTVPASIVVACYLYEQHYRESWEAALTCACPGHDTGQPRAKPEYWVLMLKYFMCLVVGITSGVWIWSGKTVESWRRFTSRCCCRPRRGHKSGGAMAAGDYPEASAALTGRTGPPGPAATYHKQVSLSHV

[4] = biological target: Frz7 (endogenous, LS174T cells) (human) (UniProt O75084); experiment: TAP (anti-FLAG, anti-HA) + mass spectrometry, bait stably expressed in LS174T cells, Exp 2, prey Frzd7
[5] = biological target: LRP6 (endogenous) (human) (UniProt O75581); experiment: TAP (anti-FLAG, anti-HA) + mass spectrometry, bait stably expressed in LS174T cells, Exp 3, prey LRP6
[6] = biological target: LRP5 (endogenous) (human) (UniProt O75197); experiment: TAP (anti-FLAG, anti-HA) + mass spectrometry, bait stably expressed in LS174T cells, Exp 4, prey LRP5
Chain of LRP5 (endogenous) (human) (O75197 32-1615): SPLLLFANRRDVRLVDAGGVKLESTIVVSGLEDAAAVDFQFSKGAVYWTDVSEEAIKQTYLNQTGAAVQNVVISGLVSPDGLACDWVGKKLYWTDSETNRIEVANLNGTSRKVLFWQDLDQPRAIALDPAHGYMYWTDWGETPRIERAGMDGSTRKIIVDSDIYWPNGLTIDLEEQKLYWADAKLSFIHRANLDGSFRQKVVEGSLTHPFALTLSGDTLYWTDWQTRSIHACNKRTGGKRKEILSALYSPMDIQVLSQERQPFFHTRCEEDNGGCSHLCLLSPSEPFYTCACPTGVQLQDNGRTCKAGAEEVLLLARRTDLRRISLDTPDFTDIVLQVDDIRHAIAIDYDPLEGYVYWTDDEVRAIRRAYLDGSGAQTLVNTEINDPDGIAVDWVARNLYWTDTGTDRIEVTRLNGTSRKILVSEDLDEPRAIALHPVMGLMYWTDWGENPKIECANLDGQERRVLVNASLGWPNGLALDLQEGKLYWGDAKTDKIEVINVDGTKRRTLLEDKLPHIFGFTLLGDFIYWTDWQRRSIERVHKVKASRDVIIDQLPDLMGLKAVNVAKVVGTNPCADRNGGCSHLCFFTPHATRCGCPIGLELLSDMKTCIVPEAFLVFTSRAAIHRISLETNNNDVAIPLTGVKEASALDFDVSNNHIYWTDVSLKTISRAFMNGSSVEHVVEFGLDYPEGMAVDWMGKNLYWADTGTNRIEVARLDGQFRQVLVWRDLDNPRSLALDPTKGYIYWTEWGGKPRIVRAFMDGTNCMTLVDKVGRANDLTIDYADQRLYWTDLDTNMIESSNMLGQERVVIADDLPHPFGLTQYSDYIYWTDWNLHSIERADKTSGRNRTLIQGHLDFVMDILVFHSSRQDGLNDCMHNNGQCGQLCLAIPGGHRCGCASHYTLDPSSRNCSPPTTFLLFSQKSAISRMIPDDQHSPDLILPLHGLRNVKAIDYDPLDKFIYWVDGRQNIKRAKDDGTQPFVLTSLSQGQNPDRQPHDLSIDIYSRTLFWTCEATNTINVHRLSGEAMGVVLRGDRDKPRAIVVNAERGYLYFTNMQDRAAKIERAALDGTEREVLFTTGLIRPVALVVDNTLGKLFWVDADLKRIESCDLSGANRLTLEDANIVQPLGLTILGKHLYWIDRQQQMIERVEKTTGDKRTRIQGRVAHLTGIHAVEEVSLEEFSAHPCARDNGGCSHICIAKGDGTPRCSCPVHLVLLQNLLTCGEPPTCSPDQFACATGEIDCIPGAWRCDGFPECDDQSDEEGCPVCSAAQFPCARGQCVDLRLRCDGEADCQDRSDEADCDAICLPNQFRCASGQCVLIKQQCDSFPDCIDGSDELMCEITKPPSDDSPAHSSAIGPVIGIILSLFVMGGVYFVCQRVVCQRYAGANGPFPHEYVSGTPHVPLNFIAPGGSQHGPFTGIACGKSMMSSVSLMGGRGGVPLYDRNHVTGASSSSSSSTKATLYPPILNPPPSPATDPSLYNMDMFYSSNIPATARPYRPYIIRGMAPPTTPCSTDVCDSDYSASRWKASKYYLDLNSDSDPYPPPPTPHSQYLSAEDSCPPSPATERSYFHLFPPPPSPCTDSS

[7] = biological target: LRP6 (endogenous) (human) (UniProt O75581); experiment: TAP (anti-FLAG, anti-HA) + mass spectrometry, bait stably expressed in LS174T cells, Exp 4, prey LRP6
[8] = biological target: LRP5 (endogenous) (human) (UniProt O75197); experiment: TAP (anti-FLAG, anti-HA) + mass spectrometry, bait stably expressed in LS174T cells, Exp 5, prey LRP5
[9] = biological target: LRP6 (endogenous) (human) (UniProt O75581); experiment: TAP (anti-FLAG, anti-HA) + mass spectrometry, bait stably expressed in LS174T cells, Exp 5, prey LRP6
[10] = biological target: LRP5 (endogenous) (human) (UniProt O75197); experiment: TAP (anti-FLAG, anti-HA) + mass spectrometry, bait stably expressed in LS174T cells, Exp 6, prey LRP5
[11] = biological target: Frz6 (endogenous, LS174T cells) (human) (UniProt O60353); experiment: TAP (anti-FLAG, anti-HA) + mass spectrometry, bait stably expressed in LS174T cells, Exp 3, prey Frzd6
[12] = biological target: Frz6 (endogenous, LS174T cells) (human) (UniProt O60353); experiment: TAP (anti-FLAG, anti-HA) + mass spectrometry, bait stably expressed in LS174T cells, Exp 4, prey Frzd6
[13] = biological target: Frz6 (endogenous, LS174T cells) (human) (UniProt O60353); experiment: TAP (anti-FLAG, anti-HA) + mass spectrometry, bait stably expressed in LS174T cells, Exp 5, prey Frzd6
[14] = biological target: Frz6 (endogenous, LS174T cells) (human) (UniProt O60353); experiment: TAP (anti-FLAG, anti-HA) + mass spectrometry, bait stably expressed in LS174T cells, Exp 6, prey Frzd6
[15] = biological target: Lgr4 (endogenous, or expression construct whose tag is not stated) (human) (UniProt Q9BXB1); experiment: cell-based or functional assay
[16] = biological target: Lgr4 (endogenous, or expression construct whose tag is not stated) (human) (UniProt Q9BXB1); experiment: TAP (anti-FLAG, anti-HA) + mass spectrometry, bait stably expressed in LS174T cells, Exp 7, prey LGR4
[17] = biological target: Lgr5 (endogenous, or expression construct whose tag is not stated) (human) (UniProt O75473); experiment: TAP (anti-FLAG, anti-HA) + mass spectrometry, bait stably expressed in LS174T cells, Exp 7, prey LGR5
[18] = biological target: LRP5 (endogenous) (human) (UniProt O75197); experiment: TAP (anti-FLAG, anti-HA) + mass spectrometry, bait stably expressed in LS174T cells, Exp 7, prey LRP5
[19] = biological target: LRP6 (endogenous) (human) (UniProt O75581); experiment: TAP (anti-FLAG, anti-HA) + mass spectrometry, bait stably expressed in LS174T cells, Exp 7, prey LRP6

Chain of Lgr5 (endogenous, or expression construct whose tag is not stated) (human) (O75473 22-907): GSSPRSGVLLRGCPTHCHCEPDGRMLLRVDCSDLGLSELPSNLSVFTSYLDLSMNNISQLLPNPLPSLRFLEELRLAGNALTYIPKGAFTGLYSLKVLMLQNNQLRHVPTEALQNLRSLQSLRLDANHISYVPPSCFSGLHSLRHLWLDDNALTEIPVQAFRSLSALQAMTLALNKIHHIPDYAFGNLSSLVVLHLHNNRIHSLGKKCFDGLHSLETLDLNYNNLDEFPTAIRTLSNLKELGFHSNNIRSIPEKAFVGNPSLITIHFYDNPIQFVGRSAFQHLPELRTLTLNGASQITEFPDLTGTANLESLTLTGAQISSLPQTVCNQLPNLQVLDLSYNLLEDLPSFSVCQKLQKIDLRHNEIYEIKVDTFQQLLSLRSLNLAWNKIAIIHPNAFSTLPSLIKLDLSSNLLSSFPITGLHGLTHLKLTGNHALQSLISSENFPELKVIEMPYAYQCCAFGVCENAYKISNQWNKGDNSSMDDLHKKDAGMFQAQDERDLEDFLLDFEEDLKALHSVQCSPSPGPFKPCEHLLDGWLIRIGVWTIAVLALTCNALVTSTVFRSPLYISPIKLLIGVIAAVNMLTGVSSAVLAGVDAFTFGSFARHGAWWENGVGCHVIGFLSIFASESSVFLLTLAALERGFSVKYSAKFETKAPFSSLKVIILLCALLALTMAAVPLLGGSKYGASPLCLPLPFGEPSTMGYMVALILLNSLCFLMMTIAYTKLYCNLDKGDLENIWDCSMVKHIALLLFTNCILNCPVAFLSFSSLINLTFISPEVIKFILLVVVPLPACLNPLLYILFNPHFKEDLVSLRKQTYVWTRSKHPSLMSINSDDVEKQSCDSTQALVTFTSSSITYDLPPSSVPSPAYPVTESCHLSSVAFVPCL

# unique peptides [1]: 7 | MASCOT Protein score (MudPit) [1]: 62 | assigned spectra [1]: 10 | # unique peptides [2]: 3 | MASCOT Protein score (MudPit) [2]: 32 | assigned spectra [2]: 3 | # unique peptides [3]: 1 | MASCOT Protein score (MudPit) [3]: 22 | assigned spectra [3]: 1 | # unique peptides [4]: 1 | MASCOT Protein score (MudPit) [4]: 87 | assigned spectra [4]: 4
Substance: FLAG/HA-tagged Lgr4 (from UniProt Q9BXB1 25-951) (receptor)

# unique peptides [5]: 3 | MASCOT Protein score (MudPit) [5]: 71 | assigned spectra [5]: 3 | # unique peptides [6]: 2 | MASCOT Protein score (MudPit) [6]: 91 | assigned spectra [6]: 3 | # unique peptides [7]: 2 | MASCOT Protein score (MudPit) [7]: 43 | assigned spectra [7]: 2 | # unique peptides [8]: 3 | MASCOT Protein score (MudPit) [8]: 122 | assigned spectra [8]: 3 | # unique peptides [9]: 6 | MASCOT Protein score (MudPit) [9]: 91 | assigned spectra [9]: 6 | # unique peptides [10]: 1 | MASCOT Protein score (MudPit) [10]: 41 | assigned spectra [10]: 1 | # unique peptides [11]: 1 | MASCOT Protein score (MudPit) [11]: 53 | assigned spectra [11]: 1 | # unique peptides [12]: 1 | MASCOT Protein score (MudPit) [12]: 94 | assigned spectra [12]: 2 | # unique peptides [13]: 6 | MASCOT Protein score (MudPit) [13]: 193 | assigned spectra [13]: 11 | # unique peptides [14]: 5 | MASCOT Protein score (MudPit) [14]: 140 | assigned spectra [14]: 8
Substance: FLAG/HA-tagged Lgr5 (from UniProt O75473 22-907) (receptor)

TOPFlash activity, Wnt3A with Rspo-1 against Wnt3A alone, HEK293T cells [15]: 12 fold
Substance: Rspo-1 (as added in the TOPflash assay of FIG. 5B) (from UniProt Q2MKA7 21-263) (ligand)

# unique peptides [16]: 10 | MASCOT Protein score (MudPit) [16]: 456 | assigned spectra [16]: 30 | # unique peptides [17]: 2 | MASCOT Protein score (MudPit) [17]: 33 | assigned spectra [17]: 2 | # unique peptides [18]: 3 | MASCOT Protein score (MudPit) [18]: 166 | assigned spectra [18]: 5 | # unique peptides [19]: 10 | MASCOT Protein score (MudPit) [19]: 279 | assigned spectra [19]: 14
Substance: tagged Frizzled5 (Frz5) (from UniProt Q13467 27-585) (receptor)
